Experimental data: paper PMC7510979, “Kinetic and structural insights into enzymatic mechanism of succinic semialdehyde dehydrogenase from Cyanothece sp. ATCC51142” (PLoS ONE, 2020)
Values belong to the molecule of their own block, whether it stands above or below them.

How the values were obtained:
[1] = biological target: succinic semialdehyde dehydrogenase cce4228 protein from Cyanothece sp. ATCC51142 (wild-type, recombinant) (Cyanothece sp. ATCC51142); test: SEC; size exclusion chromatography of purified recombinant cce4228 with standard protein ladders; native mass compared with the subunit mass
[2] = biological target: T1, cce4228 protein (succinic semialdehyde dehydrogenase, SSADH) (Crocosphaera subtropica, UniProt B1WSJ7); test: initial velocity at […] nm; type: biochemical; conditions: MgCl2, 50 mM CHES pH 9.0, 25°C, table marks wild-type data as from ref. 26, read-out: wild-type^e, cited from earlier work
T1 construct: gene gabD; full ORF in pET-28a, N-terminal 6xHis kept, E. coli BL21(DE3), Ni-NTA; native ca. 109 kDa
T1 sequence (B1WSJ7 1-455): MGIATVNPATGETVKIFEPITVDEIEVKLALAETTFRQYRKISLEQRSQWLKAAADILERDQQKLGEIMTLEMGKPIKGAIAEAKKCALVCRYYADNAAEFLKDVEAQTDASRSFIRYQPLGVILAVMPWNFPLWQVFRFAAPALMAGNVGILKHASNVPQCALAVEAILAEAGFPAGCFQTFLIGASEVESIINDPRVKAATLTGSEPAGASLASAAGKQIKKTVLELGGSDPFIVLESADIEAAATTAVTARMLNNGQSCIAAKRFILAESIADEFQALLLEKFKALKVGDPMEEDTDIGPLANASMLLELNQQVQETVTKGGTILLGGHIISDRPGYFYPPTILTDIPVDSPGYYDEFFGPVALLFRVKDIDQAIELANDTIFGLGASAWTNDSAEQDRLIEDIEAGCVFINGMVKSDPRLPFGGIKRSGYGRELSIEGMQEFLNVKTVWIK

[3] = biological target: T1, cce4228 protein (succinic semialdehyde dehydrogenase, SSADH); test: initial velocity at […] nm, excess-substrate inhibition fit; type: biochemical; conditions: 0.5 mM NADP+, MgCl2, 50 mM CHES pH 9.0, 25°C; table marks wild-type data as from ref. 26; read-out: wild-type^e; cited from earlier work
purified protein [4] = substrate: O=CCCC(=O)O; test: purified protein; type: biochemical, Crocosphaera subtropica; conditions: MgCl2, 50 mM CHES pH 9.0, 25°C
purified protein [5] = substrate: NC(=O)c1ccc[n+]([C@@H]2O[C@H](COP(=O)(O)OP(=O)(O)OC[C@H]3O[C@@H](n4cnc5c(N)ncnc54)[C@H](OP(=O)(O)O)[C@@H]3O)[C@@H](O)[C@H]2O)c1; test: purified protein; type: biochemical, Crocosphaera subtropica; conditions: 0.02 mM SSA, MgCl2, 50 mM CHES pH 9.0, 25°C, varied: cofactor
purified protein [6] = substrate: NC(=O)c1ccc[n+]([C@@H]2O[C@H](COP(=O)(O)OP(=O)(O)OC[C@H]3O[C@@H](n4cnc5c(N)ncnc54)[C@H](O)[C@@H]3O)[C@@H](O)[C@H]2O)c1; test: purified protein; type: biochemical, Crocosphaera subtropica; conditions: 0.02 mM SSA, MgCl2, 50 mM CHES pH 9.0, 25°C, varied: cofactor

stoichiometry N [1]: 2
Molecule: succinic semialdehyde dehydrogenase cce4228 protein from Cyanothece sp. ATCC51142 (wild-type, recombinant) (enzyme)

Molecule: NC(=O)c1ccc[n+]([C@@H]2O[C@H](COP(=O)(O)OP(=O)(O)OC[C@H]3O[C@@H](n4cnc5c(N)ncnc54)[C@H](OP(=O)(O)O)[C@@H]3O)[C@@H](O)[C@H]2O)c1 [NADP^+]
Km ([2]; 0.2 mM SSA): 34 ± 2 µM

Molecule: O=CCCC(=O)O [succinic semialdehyde]
Km [3]: 8 ± 3 µM

Molecule: NC(=O)c1ccc[n+]([C@@H]2O[C@H](COP(=O)(O)OP(=O)(O)OC[C@H]3O[C@@H](n4cnc5c(N)ncnc54)[C@H](O)[C@@H]3O)[C@@H](O)[C@H]2O)c1 [NAD^+]
Km ([2]; 0.02 mM SSA): 1700 ± 200 µM

B1: cce4228 protein (succinic semialdehyde dehydrogenase, SSADH) (Crocosphaera subtropica ATCC 51142; S420A) (protein)
chain: MGIATVNPATGETVKIFEPITVDEIEVKLALAETTFRQYRKISLEQRSQWLKAAADILERDQQKLGEIMTLEMGKPIKGAIAEAKKCALVCRYYADNAAEFLKDVEAQTDASRSFIRYQPLGVILAVMPWNFPLWQVFRFAAPALMAGNVGILKHASNVPQCALAVEAILAEAGFPAGCFQTFLIGASEVESIINDPRVKAATLTGSEPAGASLASAAGKQIKKTVLELGGSDPFIVLESADIEAAATTAVTARMLNNGQSCIAAKRFILAESIADEFQALLLEKFKALKVGDPMEEDTDIGPLANASMLLELNQQVQETVTKGGTILLGGHIISDRPGYFYPPTILTDIPVDSPGYYDEFFGPVALLFRVKDIDQAIELANDTIFGLGASAWTNDSAEQDRLIEDIEAGCVFINGMVKADPRLPFGGIKRSGYGRELSIEGMQEFLNVKTVWIK
notes: full ORF in pET-28a, N-terminal 6xHis kept, E. coli BL21(DE3), Ni-NTA; native ca. 109 kDa
Km (purified protein [4]; NADP+ as cofactor): 70 ± 10 µM | kcat (purified protein [4]; NADP+ as cofactor): 9.3 ± 0.9 s⁻¹

B2: cce4228 protein (succinic semialdehyde dehydrogenase, SSADH) (Crocosphaera subtropica ATCC 51142; K154A) (protein)
chain: MGIATVNPATGETVKIFEPITVDEIEVKLALAETTFRQYRKISLEQRSQWLKAAADILERDQQKLGEIMTLEMGKPIKGAIAEAKKCALVCRYYADNAAEFLKDVEAQTDASRSFIRYQPLGVILAVMPWNFPLWQVFRFAAPALMAGNVGILAHASNVPQCALAVEAILAEAGFPAGCFQTFLIGASEVESIINDPRVKAATLTGSEPAGASLASAAGKQIKKTVLELGGSDPFIVLESADIEAAATTAVTARMLNNGQSCIAAKRFILAESIADEFQALLLEKFKALKVGDPMEEDTDIGPLANASMLLELNQQVQETVTKGGTILLGGHIISDRPGYFYPPTILTDIPVDSPGYYDEFFGPVALLFRVKDIDQAIELANDTIFGLGASAWTNDSAEQDRLIEDIEAGCVFINGMVKSDPRLPFGGIKRSGYGRELSIEGMQEFLNVKTVWIK
notes: as for B1
Km (purified protein [4]; 8 mM NADP+): 20 ± 10 µM | kcat (purified protein [4]; 8 mM NADP+): 0.1 ± 0.05 s⁻¹ | kcat/Km (purified protein [4]; 8 mM NADP+): 5000 M⁻¹ s⁻¹ | Km (purified protein [5]): 6100 ± 1500 µM | Km (purified protein [6]): 1500 ± 400 µM

B3: cce4228 protein (succinic semialdehyde dehydrogenase, SSADH) (Crocosphaera subtropica ATCC 51142; S157E) (protein)
chain: MGIATVNPATGETVKIFEPITVDEIEVKLALAETTFRQYRKISLEQRSQWLKAAADILERDQQKLGEIMTLEMGKPIKGAIAEAKKCALVCRYYADNAAEFLKDVEAQTDASRSFIRYQPLGVILAVMPWNFPLWQVFRFAAPALMAGNVGILKHAENVPQCALAVEAILAEAGFPAGCFQTFLIGASEVESIINDPRVKAATLTGSEPAGASLASAAGKQIKKTVLELGGSDPFIVLESADIEAAATTAVTARMLNNGQSCIAAKRFILAESIADEFQALLLEKFKALKVGDPMEEDTDIGPLANASMLLELNQQVQETVTKGGTILLGGHIISDRPGYFYPPTILTDIPVDSPGYYDEFFGPVALLFRVKDIDQAIELANDTIFGLGASAWTNDSAEQDRLIEDIEAGCVFINGMVKSDPRLPFGGIKRSGYGRELSIEGMQEFLNVKTVWIK
notes: as for B1
Km (purified protein [4]; 10 mM NADP+): 2.8 ± 0.7 µM | kcat (purified protein [4]; 10 mM NADP+): 1.5 ± 0.1 s⁻¹ | kcat/Km (purified protein [4]; 10 mM NADP+): 535000 M⁻¹ s⁻¹ | Km (purified protein [5]): 1100 ± 200 µM | Km (purified protein [6]): 510 ± 40 µM

B4: cce4228 protein (succinic semialdehyde dehydrogenase, SSADH) (Crocosphaera subtropica ATCC 51142; R139A) (protein)
chain: MGIATVNPATGETVKIFEPITVDEIEVKLALAETTFRQYRKISLEQRSQWLKAAADILERDQQKLGEIMTLEMGKPIKGAIAEAKKCALVCRYYADNAAEFLKDVEAQTDASRSFIRYQPLGVILAVMPWNFPLWQVFAFAAPALMAGNVGILKHASNVPQCALAVEAILAEAGFPAGCFQTFLIGASEVESIINDPRVKAATLTGSEPAGASLASAAGKQIKKTVLELGGSDPFIVLESADIEAAATTAVTARMLNNGQSCIAAKRFILAESIADEFQALLLEKFKALKVGDPMEEDTDIGPLANASMLLELNQQVQETVTKGGTILLGGHIISDRPGYFYPPTILTDIPVDSPGYYDEFFGPVALLFRVKDIDQAIELANDTIFGLGASAWTNDSAEQDRLIEDIEAGCVFINGMVKSDPRLPFGGIKRSGYGRELSIEGMQEFLNVKTVWIK
notes: as for B1
Km (purified protein [4]; NADP+ as cofactor): 112 ± 8 µM | kcat (purified protein [4]; NADP+ as cofactor): 0.54 ± 0.01 s⁻¹
